Test results: US20150259426A1 (Novartis, published 2015)
Residue numbers refer to the chain shown, from its start.

Tests used:
[1] = target: T1, DR5-61 (human DR5 residues 61 to 183, gp67DR5l61-s183-PH) (human); assay: complex isolated by gel filtration, then crystallized
T1 construct: expressed in SF9 cells, cleaved with PreScission protease
T1 chain: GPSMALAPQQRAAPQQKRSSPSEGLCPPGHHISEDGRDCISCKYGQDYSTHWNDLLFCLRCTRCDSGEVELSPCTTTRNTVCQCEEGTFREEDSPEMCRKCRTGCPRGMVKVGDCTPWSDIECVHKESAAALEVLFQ

[2] = target: T2, cell-bound cynomolgus DR5 (CHO-K1 cells transfected with the full length cynoDR5 gene) (cynomolgus); assay: FACS saturation binding, apparent KD, cell-bound cynomolgus DR5
T2 construct: whole, on cells

[3] = target: T3, cell-bound human DR5 (Colo205 and other human cell lines) (human, UniProt O14763 56-440); assay: FACS saturation binding, apparent KD, cell-bound human DR5
T3 construct: endogenous DR5 of the cell lines

[4] = target: cynomolgus DR5 (construct used not stated) (cynomolgus); assay: SPR kinetics (Biacore), cynomolgus DR5
[5] = target: T4, cynomolgus DR5-Fc fusion protein (cyno DR5 amino acids 56 to 213 fused with human IgG1 Fc) (cynomolgus; human); assay: ELISA, periplasmic extract, plate coated with cynomolgus DR5-Fc, anti-myc detection
[6] = target: T4, cynomolgus DR5-Fc fusion protein (cyno …); assay: SPR (Biacore), CM5 chip coated with cynomolgus DR5-Fc, 1 to 100 nM NB construct
[7] = target: T3, cell-bound human DR5 (Colo205 and other …); assay: FACS, periplasmic extract on Colo205 cells, anti-myc detection
[8] = target: T2, cell-bound cynomolgus DR5 (CHO-K1 cells …); assay: FACS, periplasmic extract on CHO-K1 cells expressing cynomolgus DR5, anti-myc detection
[9] = target: cynomolgus DR5 (construct used not stated) (cynomolgus); assay: SPR kinetics, cynomolgus DR5
[10] = target: T5, DR5-54 (human DR5 residues 54 to 183, gp67DR5a54-s183-PH) (human, UniProt O14763 54-183); assay: complex isolated by gel filtration, then crystallized
T5 construct: expressed in SF9 cells, cleaved with PreScission protease; the complex with 11H6 was treated with trypsin before crystallization

[11] = target: T3, cell-bound human DR5 (Colo205 and other …); assay: cell-based or functional assay
[12] = target: T3, cell-bound human DR5 (Colo205 and other …); assay: cell-based or functional assay; remark: listed apart in the source
[13] = target: T6, short (182 amino acids) human DR5-Fc fusion protein (R&D Systems, catalogue #631-T2/CF) (human, UniProt O14763 56-210); assay: SPR (Biacore), CM5 chip coated with human DR5-Fc, 1 to 100 nM NB construct
T6 construct: bought; not shown: Fc part of the bought fusion protein; not described

B1: 4E6 hu, pAX111-4E6 (monomeric NB construct for crystallography) (VHH)
VHH: EVQLLESGGGLVQPGGSLRLSCAASGRTFGSIRVGWFRQAPGKGREFVSAINRNDGTTYYADSVKGRFTISRDNSKNTVYLQMNSLRPEDTAVYYCAAGLQYNRAADRVPVGAVYWGQGTLVTVSS
binding result [1]: binds

B2: 4E6-hx (monovalent; humanized FR regions of 4E6-Hu with the CDR3 of 4E6), produced in E. coli (VHH)
VHH: B1 VHH with A105S
Kd [2]: 7.1 nM | Kd [3]: 0.34 nM | Kd [4]: 3.4 nM

B3: 11H6 (monomeric anti-DR5 NB construct) (VHH)
VHH: EVQLVESGGGLVQPGGSLRLSCAASGTFDKINNMGWYRQAPGKQRDLVAQITPGGITDYADSVKGRFTISRDNAKDTMYLQMNSLKPEDTAVYFCNAEILKRAYIDVYVNYWGQGTQVTVSS
notes: llama VHH; periplasmic extract or purified monovalent material from E. coli; also called 11H6 parent; wild type 11H6; not shown: C-terminal c-myc tag and (His)6 tag coded by the vector
ABS405 nm [5]: 0.133 ABS405 nm | Kd [6]: 9200 nM | mean count fluorescence [7]: 723 | mean count fluorescence [8]: 292 | Kd [9]: 320 nM

B4: 11H6 hu, pAX100-11H6 (monomeric NB construct for crystallography) (VHH)
VHH: B3 VHH with V5L, A74S, D76N, M78L, K86R, F94Y, Q117L
notes: the complex with DR5-54 was treated with trypsin before crystallization
binding result [10]: binds

B5: 11H6-hu (monovalent humanized variant of 11H6) (VHH)
VHH: B3 VHH with V5L, A74S, D76N, M78L, K86R, F94Y, Q117L
notes: purified monovalent material
Kd [9]: 170 nM

B6: 10F1 tetra (tetravalent anti-DR5 NB construct) (other)
chain: EVQLVESGGGLVQPGGSLRLSCAASGFTFSRYWMYWVRQAPGKGLEWVSAINSGGGDTYYRDSVRGRFTISRDNFKNTLYLQMNSLKSEDTAVYYCAKAEGPPTFSLIRTMTVDPGAQGTQVTVSSGGGGSGGGGSGGGGSGGGGSGGGGSGGGGSGGGGSEVQLVESGGGLVQPGGSLRLSCAASGFTFSRYWMYWVRQAPGKGLEWVSAINSGGGDTYYRDSVRGRFTISRDNFKNTLYLQMNSLKSEDTAVYYCAKAEGPPTFSLIRTMTVDPGAQGTQVTVSSGGGGSGGGGSGGGGSGGGGSGGGGSGGGGSGGGGSEVQLVESGGGLVQPGGSLRLSCAASGFTFSRYWMYWVRQAPGKGLEWVSAINSGGGDTYYRDSVRGRFTISRDNFKNTLYLQMNSLKSEDTAVYYCAKAEGPPTFSLIRTMTVDPGAQGTQVTVSSGGGGSGGGGSGGGGSGGGGSGGGGSGGGGSGGGGSEVQLVESGGGLVQPGGSLRLSCAASGFTFSRYWMYWVRQAPGKGLEWVSAINSGGGDTYYRDSVRGRFTISRDNFKNTLYLQMNSLKSEDTAVYYCAKAEGPPTFSLIRTMTVDPGAQGTQVTVSS
notes: four VHH units in one chain joined by GlySer linkers; not shown: C-terminal c-myc/His6 tag from vector pAX51
Kd [6]: 0.022 nM | IC50, cell survival, 184A1 [11]: ≥ 20 nM | IC50, cell survival, A549 [11]: ≥ 20 nM | IC50, cell survival, ARPE-19 [11]: ≥ 20 nM | IC50, cell survival, BxPC-3 [11]: 0.003 nM | IC50, cell survival, Colo205 [11]: 0.002 nM | IC50, cell survival, H226 [11]: 0.024 nM | IC50, cell survival, H2052 [11]: 0.004 nM | IC50, cell survival, H2122 [11]: 0.001 nM | IC50, cell survival, HAAE-1 [11]: ≥ 20 nM | IC50, cell survival, Huvec [11]: ≥ 20 nM | IC50, cell survival, Jurkat [11]: 0.003 nM | IC50, cell survival, M30 [11]: ≥ 20 nM | IC50, cell survival, Malme-3 [11]: ≥ 20 nM | IC50, cell survival, MiaPaCa-2 [11]: 0.028 nM | IC50, cell survival, Molt4 [11]: 0.002 nM | IC50, cell survival, Panc-1 [11]: 0.009 nM | IC50, cell survival, WI-38 [11]: ≥ 20 nM | EC50, caspase 3/7 in Colo205 tumor after a single dose in mice, indirect response model [12]: 0.365 ng/mg tissue | Kd [13]: 0.0039 nM
